How the values were obtained:
Experiment in all cases: ITC
[1] = biological target: hTOM70 mutant H583Q (human)
[2] = biological target: human TOM70 (106-608) D545A, C-terminal His-tagged (human) (UniProt O94826)
[3] = biological target: human TOM70 (106-608) E477A, C-terminal His-tagged (human) (UniProt O94826)
[4] = biological target: human TOM70 (106-608) E549A, C-terminal His-tagged (human) (UniProt O94826)
[5] = biological target: human TOM70 (106-608) E549I, C-terminal His-tagged (human) (UniProt O94826)
[6] = biological target: human TOM70 (106-608) H583Q, C-terminal His-tagged (human) (UniProt O94826)

C-peptide (SARS-CoV-2 orf9b core sequence 44-70), sequence (P0DTD2 44-70 limits assumed): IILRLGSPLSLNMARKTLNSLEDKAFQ

Work on “C-peptide (SARS-CoV-2 orf9b core sequence 44-70) (from UniProt P0DTD2 44-70)” yielded a Kd [1] of 0.99 µM, a Ka [2] of 20100 M⁻¹ and a Kd [2] of 49.8 µM. It also gave a stoichiometry N [2] of 1, a Ka [3] of 3870 M⁻¹ and a Kd [3] of 258 µM. For the same substance, the stoichiometry N [3] was 0, the Ka [4] was 43800 M⁻¹ and the Kd [4] was 22.8 µM. For the same substance, the stoichiometry N [4] was 1.5, the Ka [5] was 93800 M⁻¹ and the Kd [5] was 10.7 µM. The stoichiometry N [5] was 1.7, the Ka [6] was 1.01e+06 M⁻¹ and the stoichiometry N [6] was 1.5.

Reference: paper PMC8121815 (Nature Communications, 2021)
